Source: patent US20040253689A1 (published 2004)
Numbering of substitutions follows the chain as printed. Numbers in names are those of the source.

B1: 4m-hIGFBP-3 (R75A, L77A, L80A, L81A mutant CHO-hIGFBP-3) (other, human)
chain: HHHHHHGMASMTGGQQMGRDLYDDDDKGASSAGLGPVVRCEPCDARALAQCAPPPAVCAELVREPGCGCCLTCALSEGQPCGIYTERCGSGLRCQPSPDEAAPAQAAADGRGLCVNASAVSRLRAYLLPAPPAPGNASESEEDRSAGSVESPSVSSTHRVSDPKFHPLHSKIIIIKKGHAKDSQRYKVDYESQSTDTQNFSSESKRETEYGPCRREMEDTLNHLKFLNVLSPRGVHIPNCDKKGFYKKKQCRPSKGRKRGFCWCVDKYGQPLPGYTTKGKEDVHCYSMQSK
notes: mature; Same tagged construct as the wild-type CHO-hIGFBP-3, with four alanine substitutions; also called quadruple mutant
B2: 6m-hIGFBP-3 (I56A, Y57A, R75A, L77A, L80A, L81A mutant CHO-hIGFBP-3) (other, human)
chain: B1 chain with I83A, Y84A
notes: mature; Same tagged construct as the wild-type CHO-hIGFBP-3, with six alanine substitutions; Positions count on mature hIGFBP-3, not on the precursor; also called 6m-CHO-hIGFBP-3

Experiments:
[1] = molecular target: T1, ^125I-IGF-II (human, UniProt P01344 25-91, radioiodinated (^125I, 2000 Ci/mmol); labelled residue not stated); test: solution binding of ^125I-IGF-II, charcoal separation; reference wild-type CHO-hIGFBP-3
T1 construct: also called insulin growth factor-II
Description: (§1) Binding of ¹²⁵I-IGF-I and ¹²⁵I-IGF-II in solution —¹²⁵I-IGF-I or ¹²⁵I-IGF-II (˜25,000 cpm) was incubated overnight at 4° C. with different concentrations of recombinant hIGFBP-3 standard (R&D Systems), or purified wild-type or mutant CHO-hIGFBP-3 in 0.4 ml phosphate-buffered saline supplemented with 0.2% fatty acid-free bovine serum albumin. Following the addition of 0.5 ml of a 5% suspension of activated charcoal (Sigma) to adsorb unbound IGF tracer, the samples were centrifuged. Radioactivity bound to hIGFBP-3 remained in the charcoal supernate and was quantified in a gamma counter (Yang et al. (1993), supra). DNA synthesis—DNA synthesis was measured in CCL64 cells by the incorporation of the thymidine analog BrdU into newly synthesized as previously described (Wu et al. (2000), supra). Quiescent cells in serum-free medium were stimulated to synthesize DNA by adding EGF. EGF was used to stimulate proliferation instead of serum to avoid introducing IGFs. In brief, the cells were plated in 96-well microtiter plates (30,000 cells/well) in 0.2 ml of DMEM containing 10% fetal calf serum, and incubated for 3 h at 37° C. […] BrdU (10 μM) was added for 2-3 h, the cells were fixed, and BrdU incorporation was quantified by an immunocolorimetric assay using monoclonal antibody to BrdU conjugated to peroxidase. […] The absorbance at 450 nm was measured in a scanning multiwell spectrophotometer.

[2] = molecular target: T2, ^125I-IGF-I (human, UniProt P05019 49-118, radioiodinated (^125I, 2000 Ci/mmol); labelled residue not stated); test: solution binding of ^125I-IGF-I, charcoal separation; reference wild-type CHO-hIGFBP-3
T2 construct: also called insulin growth factor-I
Description: as §1

T1 sequence (P01344 25-91 limits assumed): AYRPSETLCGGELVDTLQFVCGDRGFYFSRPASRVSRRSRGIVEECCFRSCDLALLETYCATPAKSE
T2 sequence (P05019 49-118 limits assumed): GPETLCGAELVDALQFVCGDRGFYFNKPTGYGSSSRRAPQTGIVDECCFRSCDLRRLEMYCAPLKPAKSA

fold lower concentration of wild-type CHO-hIGFBP-3 that still bound more than the mutant at 200 ng/ml [1] [fold]	fold lower concentration of wild-type CHO-hIGFBP-3 that still bound more than the mutant at 200 ng/ml [2] [fold]	Binder
> 80	> 80	B1
> 80	80	B2
